These results are taken from PMC4134136 (PLoS ONE, 2014).

The series deals with the molecule itself. As to the kind of experiment: crystal structure; NOD1 CARD and Ub mixed 1:1, 1 mM each, in GF buffer (25 mM sodium phosphate, 25 mM NaCl, 5 mM DTT, pH 7.0); hanging drop, 100 mM PCB, 25% PEG 1500, pH 9.0 (crystals formed at pH ~8.6); 2.90 Å.

B1: Caspase Recruitment Domain (CARD) of human NOD1, residues serine 16 to glycine 108 (domain or fragment)
chain: SHPHIQLLKSNRELLVTHIRNTQCLVDNLLKNDYFSAEDAEIVCACPTQPDKVRKILDLVQSKGEEVSEFFLYLLQQLADAYVDLRPWLLEIGLE
modifications: dimethyl-arsenic adduct on the sulfhydryl of Cys59 (formed in the crystallization buffer with cacodylate and DTT)
notes: NOD1, human, CARD, residues serine 16 to glycine 108; leucine and glutamic acid inserted between glycine 108 and the 6xHis-tag, from an XhoI restriction site; Purified as a monomer (gel filtration removed residual dimer); in the crystal a homodimer with swapped sixth helices; also called NOD1 CARD; CARD A
As for B1, the binding result was “binds”.
